Data: patent publication US11433139B2, “Peptide vaccines against interleukin-31” (Zoetis Services LLC, priority 2018, dated 2022)

T1: canine IL-31 (Canis lupus familiaris, UniProt A0A8I3S3D1)
T1 construct: made in house; host or cells: CHO cells (CHROMOS ACE system)
T1 sequence (A0A8I3S3D1 24-159): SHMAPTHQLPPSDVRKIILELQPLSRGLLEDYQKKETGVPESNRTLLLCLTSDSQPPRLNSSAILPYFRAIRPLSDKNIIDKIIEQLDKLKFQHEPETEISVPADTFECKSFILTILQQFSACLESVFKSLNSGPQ


Assays:
[1] = tested on: equine IL-31; test: Biacore binding, single test concentration of antibody, equine IL-31 surface
Sequence of equine IL-31 (as listed by the source): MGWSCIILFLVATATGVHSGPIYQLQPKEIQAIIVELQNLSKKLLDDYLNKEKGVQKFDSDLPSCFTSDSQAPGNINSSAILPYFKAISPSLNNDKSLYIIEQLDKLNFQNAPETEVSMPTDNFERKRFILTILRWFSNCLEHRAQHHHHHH
Description: For the indirect ELISA, binding (ELISA OD) to wildtype feline IL-31 and a feline IL-31 15H05 mutant which had mutations in the monoclonal antibody 15H05 epitope region was assessed. To confirm binding, biacore analysis was performed using canine, feline, equine, human, the feline 15H05 mutant, and feline 11E12 mutant IL-31 proteins as surfaces and a single test concentration of antibody. The feline IL-31 11E12 mutant had mutations in the monoclonal antibody 11E12 epitope region.
For the indirect ELISA method, antibody binding to wildtype and feline IL-31 15H05 mutant proteins was assessed. […] In comparison, the 11E12 antibody bound to the wild-type feline IL-31 and its binding was not impacted by the mutations in the 15H05 epitope region as evidenced by the data in FIG. 4. To confirm binding, biacore analysis was performed using canine, feline, equine, human, feline 15H05 mutant, and feline 11E12 mutant IL-31 proteins as surfaces and a single test concentration of antibody. Similar to ELISA observations, all antibodies tested bound to wildtype feline IL-31. In agreement with the data described above in this section, mouse antibodies 11 E12 and 15H05 both bound to canine and feline IL-31 surfaces. […] From this group of nine fully canine antibodies, only ZIL1 and ZIL9 cross-reacted with equine IL-31. Of note, antibody 15H05 was the only one of all assayed herein that bound to canine, feline, and equine IL-31 indicating some level of epitope conservation across the three species. In contrast, none of the antibodies described herein bound to human IL-31. Additional biacore surfaces were used to verify ELISA observations showing differential binding of antibodies to wildtype feline IL-31 and two proteins with mutations in the 15H05 (15H05 mutant) or 11 E12 (11E12 mutant) epitopes. […] Differing results can be attributed to differences in the two assay methodologies.

[2] = biological target: feline IL-31; test: Affinity of anti-IL-31 antibodies by surface plasmon resonance (Biacore), feline IL-31 surface; format: binding; settings: IL-31 conjugated to the surface (FIG. 2)
Description: (§1) The affinity with which candidate mAbs bind canine and feline IL-31 was determined using surface plasmon resonance (SPR) on a Biacore system (Biocore Life Sciences (GE Healthcare), Uppsala, Sweden). To avoid affinity differences associated with differential surface preparation that can occur when immobilizing antibodies to surfaces; a strategy was employed where IL-31 was directly conjugated to the surface. Immobilization was obtained by amine coupling 5 μg/mL IL-31 using N-hydroxysuccinimide (NHS)/1-Ethyl-3-(3-dimethylaminopropyl) carbodiimide (EDC) chemistry. Chips were quenched with ethanolamine and the affinity with which all candidate mAbs bound to the immobilized IL-31 was evaluated. All curves were fit to a 1:1 model. Affinity constants (KD) less than 1×10^−11M (1E-11 M) are below the lower limit of quantitation of detection for the instrument. Results for affinity measurements are described herein.
Target sequence in this assay (as listed by the source): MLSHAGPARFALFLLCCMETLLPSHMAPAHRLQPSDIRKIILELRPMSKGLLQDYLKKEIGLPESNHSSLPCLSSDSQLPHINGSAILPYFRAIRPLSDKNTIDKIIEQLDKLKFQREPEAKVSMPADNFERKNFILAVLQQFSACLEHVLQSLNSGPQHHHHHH

[3] = tested on: feline IL-31; test: Inhibition of feline IL-31 induced pSTAT3 signaling in feline FCWF4 macrophage-like cells; format: cell-based; settings: for potency (IC50) against feline IL-31 in feline FCWF4 cells: 0.2 μg/mL feline IL-31, pSTAT3, FCWF4 cells (FIG. 3)
Description: (§2) To identify candidates with inhibitory activity, antibodies were assessed for their ability to affect IL-31-mediated STAT3 phosphorylation in either a canine or feline cell-based assay. STAT3 phosphorylation was determined in canine DH-82 (ATCC® CRL-10389™) or feline FCWF4 macrophage-like cells (ATCC CRL-2787). DH82 and FCWF4 cells were primed with canine interferon gamma (R&D Systems, Minneapolis, Minn.) at 10 ng/mL for 24 hours or feline interferon gamma (R&D Systems, Minneapolis, Minn.) at 125 ng/mL for 96 hours, respectively, to increase receptor expression. Both cell types were serum starved for 2 hours prior to IL-31 and mAb treatment. Using two independent methods, all candidate mAbs were evaluated for their ability to inhibit either 1 μg/mL canine or 0.2 μg/mL feline IL-31 induced STAT3 phosphorylation. […] To ensure complex formation, a one hour co-incubation of mAb and IL-31 cytokine prior to cell stimulation was completed. IL-31 cell stimulation was carried out for five minutes. STAT3 phosphorylation was measured using AlphaLISA SureFire ULTRA™ technology (Perkin Elmer, Waltham, Mass.). In the case where antibody concentration and purity are unknown, hybridoma supernatants were qualitatively measured for their ability to inhibit STAT3 phosphorylation following a 1 hour co-incubation with […] IL-31. The potency of individual monoclonal antibodies defined by their ability to inhibit IL-31 mediated STAT3 phosphorylation in these assays was considered the key selection criteria for further advancement of select antibodies. The term potency refers to the IC50 value calculated from these assays and is the concentration of the antibody where signaling induced by IL-31 is reduced to one half its maximal value.

[4] = tested on: feline IL-31; test: IL-31 induced pruritus model in cats, antibody pre-bound to feline IL-31; format: in vivo, cat
Description: To test the preliminary efficacy of mouse: feline 11E12 chimera, mouse: feline 15H05 chimera, and felinized 11 E12 (Feline 11E12 1.1), an IL-31 induced pruritus model in cats was developed. Following an intravenous dose of 0.5 μg/kg feline IL-31 (SEQ ID NO: 159; Feline_IL-31_E_coli), the corresponding nucleotide sequence for which is (SEQ ID NO: 160; Feline_IL-31_E_coli), cats will portray transient pruritic behavior that includes (but is not limited to) licking, chewing, scratching, and head or body shaking. Rubbing up against the cage was not considered a pruritic activity. Pruritic observations take place by a trained investigator for 30 minutes prior to administration of the IL-31 protein and for 1 hour following. For this study, a baseline challenge with feline IL-31 was performed up to 1 month prior to dosing with antibody. On day zero, a 0.5 mg/kg antibody dose was combined with 0.5 μg/kg of feline IL-31 at room temperature for 60 minutes prior to injecting the pre-bound complex into each animal. A “no mAb” control was included for a control. The dose of mAb represents a gross molar excess of antibody to cytokine. Pruritic activity was monitored as described on days 0, 7, and 21.
Target sequence in this assay (as listed by the source): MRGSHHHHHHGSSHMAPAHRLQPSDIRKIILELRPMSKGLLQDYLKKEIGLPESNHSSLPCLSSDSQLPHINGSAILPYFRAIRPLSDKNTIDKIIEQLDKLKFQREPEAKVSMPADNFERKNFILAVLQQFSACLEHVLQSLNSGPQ

[5] = tested on: feline IL-31; test: Inhibition of feline IL-31 induced pSTAT3 signaling in canine DH-82 cells; format: cell-based; settings: feline IL-31, pSTAT3, canine DH82 cells (FIG. 3)
Description: as §2
Target sequence in this assay (as listed by the source): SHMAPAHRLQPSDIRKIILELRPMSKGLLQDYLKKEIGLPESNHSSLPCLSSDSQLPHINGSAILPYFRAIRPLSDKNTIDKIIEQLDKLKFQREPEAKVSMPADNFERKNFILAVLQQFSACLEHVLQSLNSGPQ

[6] = biological target: canine IL-31; test: Affinity of anti-IL-31 antibodies by surface plasmon resonance (Biacore), canine IL-31 surface; format: binding; settings: IL-31 conjugated to the surface (FIG. 2)
Description: as §1

[7] = biological target: T1, canine IL-31; test: Inhibition of canine IL-31 induced pSTAT3 signaling in canine DH-82 and feline FCWF4 cells; format: cell-based; settings: canine IL-31; canine and feline cell types, cell type of the values not specified
Description: as §2

[8] = 0.5 mg/kg antibody pre-bound with 0.5 μg/kg feline IL-31, days 0, 7, 21

Molecule | binding to equine IL-31 (Biacore) [1] | affinity (KD) to feline IL-31 [2] | potency (IC50) against feline IL-31 in feline FCWF4 cells [3] | potency (IC50) against feline IL-31 in feline FCWF4 cells ([3]; listed as Felinized 11E12 1.1) | pruritus scores compared to placebo control ([4]; 0.5 mg/kg antibody pre-bound with 0.5 μg/kg feline IL-31, days 0, 7, 21, 0.5 mg/kg) | pruritus scores compared to placebo control ([4]; 0.5 mg/kg antibody pre-bound with 0.5 μg/kg feline IL-31, days 0, 7, 21, listed as feline 11E12 1.1, 0.5 mg/kg) | potency (IC50) against feline IL-31 in canine DH82 cells [5] | affinity (KD) to canine IL-31 [6] | pruritus scores compared to placebo control [4, 8] | fold increased IC50 relative to mouse: feline 11E12 chimera ([3]; feline IL-31 induced pSTAT3 signaling in feline FCWF4 cells) | IC50 against canine IL-31 [7] [µg/mL]
ZIL9: fully canine anti IL-31 antibody, VH SEQ ID NO: 83, VL SEQ ID NO: 85 (antibody, listed as Canis familiaris, V domains shown) VH: EVQLVESGGDLVKPPGSLRLSCVASGFTFSSYDMTWVRQAPGKGLQWVADVNSGGTGTAYAVAVKGRFTISRDNAKKTLYLQMNSLRAEDTAVYYCAKLGVRDGLSVWGQGTLVTVSS VL: SSVLTQPPSVSVSLGQTATISCSGESLNEYYTQWFQQKAGQAPVLVIYRDTERPSGIPDRFSGSSSGNTHTLTISGARAEDEADYYCESAVDTGTLVFGGGTHLAVL | cross-reacted |  |  |  |  |  |  |  |  |  | 
Feline 11E12 1.1: felinized 11E12, FEL_11E12_VH1 paired with FEL_11E12_VL1 (antibody, V domains shown) VH: QVLLVQSGAEVKKPGASVKIFCKASGYSFTYYDINWLRQAPEQGLEWMGWIFPGDGGTKYNETFKGRLTLTADTSTNTVYMELSSLRSADTAMYYCARGGTSVIRDAMDYWGQGALVTVSS VL: EIQMTQSPSSLSASPGDRVTITCRASESVDNYGISFMHWYQQKPGKVPKLLIYRASNLESGVPSRFSGSGSGTDFTLTISSLEPEDAATYYCQQSNKDPLTFGQGT |  | loss of affinity | loss of potency | approximately a two-fold decrease in potency | did not reduce pruritus at day zero | lack of efficacy | loss of potency | loss of affinity |  |  | 
mouse: feline 11E12 chimera: mouse 11E12 variable regions on feline IgG constant regions (antibody) heavy: QVQLQQSGAELVKPGASVKLSCKASGYTFKYYDINWVRQRPEQGLEWIGWIFPGDGGTKYNETFKGKATLTTDKSSSTAYMQLSRLTSEDSAVYFCARGGTSVIRDAMDYWGQGTSVTVSSASTTAPSVFPLAPSCGTTSGATVALACLVLGYFPEPVTVSWNSGALTSGVHTFPAVLQASGLYSLSSMVTVPSSRWLSDTFTCNVAHPPSNTKVDKTVRKTDHPPGPKPCDCPKCPPPEAAGAPSIFIFPPKPKDTLSISRTPEVTCLVVDLGPDDSDVQITWFVDNTQVYTAKTSPREEQFNSTYRVVSVLPILHQDWLKGKEFKCKVNSKSLPSPIERTISKAKGQPHEPQVYVLPPAQEELSRNKVSVTCLIKSFHPPDIAVEWEITGQPEPENNYRTTPPQLDSDGTYFVYSKLSVDRSHWQRGNTYTCSVSHEALHSHHTQKSLTQSPGK light: DIVLTQSPASLAVSLGQRATISCRASESVDNYGISFMHWYQQKPGQPPKLLIYRASNLESGIPARFSGSGSRTDFTLTINPVETDDVATYYCQQSNKDPLTFGAGTKLELKRSDAQPSVFLFQPSLDELHTGSASIVCILNDFYPKEVNVKWKVDGVVQNKGIQESTTEQNSKDSTYSLSSTLTMSSTEYQSHEKFSCEVTHKSLASTLVKSFQRSECQRE |  | slightly superior |  |  |  |  |  | slightly superior | did not achieve a significant reduction in pruritus at any timepoint |  | 
mouse: feline 15H05 chimera: mouse 15H05 variable regions on feline IgG constant regions (antibody) heavy: QVQLQQSAAELARPGASVKMSCKTSGYTFTSYTIHWIKQRPGQGLEWIGNINPTSGYTENNQRFKDKTTLTVDRSSNTAYLQLHSLTSEDSAVYFCARWGFKYDGEWSFDVWGAGTTVTVSSASTTAPSVFPLAPSCGTTSGATVALACLVLGYFPEPVTVSWNSGALTSGVHTFPAVLQASGLYSLSSMVTVPSSRWLSDTFTCNVAHPPSNTKVDKTVRKTDHPPGPKPCDCPKCPPPEAAGAPSIFIFPPKPKDTLSISRTPEVTCLVVDLGPDDSDVQITWFVDNTQVYTAKTSPREEQFNSTYRVVSVLPILHQDWLKGKEFKCKVNSKSLPSPIERTISKAKGQPHEPQVYVLPPAQEELSRNKVSVTCLIKSFHPPDIAVEWEITGQPEPENNYRTTPPQLDSDGTYFVYSKLSVDRSHWQRGNTYTCSVSHEALHSHHTQKSLTQSPGK light: DIQMNQSPSSLSASLGDTITVTCRASQGISIWLSWYQQKPGNIPKVLINKASNLHIGVPPRFSGSGSGTHFTLTITSLQPEDIATYYCLQSQTYPLTFGGGTKLEINRSDAQPSVFLFQPSLDELHTGSASIVCILNDFYPKEVNVKWKVDGVVQNKGIQESTTEQNSKDSTYSLSSTLTMSSTEYQSHEKFSCEVTHKSLASTLVKSFQRSECQRE |  | lost some affinity |  |  |  |  |  | lost some affinity | significant improvement (p<0.05) | approximately 2 fold | 28.61
